Measurements reported in PMC5389614.
Like-named read-outs stand apart in the source and are kept apart here.

T1: AgeI wt (UniProt Q9KHV6 1-278)
T1 sequence: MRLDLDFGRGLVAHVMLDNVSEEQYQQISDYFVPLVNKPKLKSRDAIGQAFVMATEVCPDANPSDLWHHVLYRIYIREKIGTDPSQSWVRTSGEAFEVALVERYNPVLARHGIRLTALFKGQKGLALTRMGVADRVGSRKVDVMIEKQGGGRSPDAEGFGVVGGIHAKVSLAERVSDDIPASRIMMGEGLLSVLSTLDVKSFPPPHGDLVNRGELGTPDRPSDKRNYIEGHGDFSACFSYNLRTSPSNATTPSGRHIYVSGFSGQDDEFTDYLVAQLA

T2: AgeI D178A (UniProt Q9KHV6 1-278, D178A)
T2 sequence: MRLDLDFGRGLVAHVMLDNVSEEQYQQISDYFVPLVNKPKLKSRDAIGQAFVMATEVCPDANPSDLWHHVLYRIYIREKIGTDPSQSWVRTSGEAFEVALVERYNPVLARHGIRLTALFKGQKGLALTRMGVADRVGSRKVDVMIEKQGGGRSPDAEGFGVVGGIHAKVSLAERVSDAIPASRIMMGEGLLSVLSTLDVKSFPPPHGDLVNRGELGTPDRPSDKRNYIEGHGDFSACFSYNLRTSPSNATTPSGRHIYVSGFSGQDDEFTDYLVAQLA

T3: AgeI D223A (UniProt Q9KHV6 1-278, D223A)
T3 sequence: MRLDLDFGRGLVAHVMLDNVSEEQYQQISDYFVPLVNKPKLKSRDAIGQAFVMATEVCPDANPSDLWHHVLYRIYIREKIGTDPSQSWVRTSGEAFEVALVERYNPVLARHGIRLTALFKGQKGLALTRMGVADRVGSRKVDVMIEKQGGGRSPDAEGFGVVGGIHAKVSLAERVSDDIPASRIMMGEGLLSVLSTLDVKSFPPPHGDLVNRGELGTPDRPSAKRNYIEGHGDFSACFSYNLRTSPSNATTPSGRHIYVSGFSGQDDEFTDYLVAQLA

T4: AgeI D177A (UniProt Q9KHV6 1-278, D177A)
T4 sequence: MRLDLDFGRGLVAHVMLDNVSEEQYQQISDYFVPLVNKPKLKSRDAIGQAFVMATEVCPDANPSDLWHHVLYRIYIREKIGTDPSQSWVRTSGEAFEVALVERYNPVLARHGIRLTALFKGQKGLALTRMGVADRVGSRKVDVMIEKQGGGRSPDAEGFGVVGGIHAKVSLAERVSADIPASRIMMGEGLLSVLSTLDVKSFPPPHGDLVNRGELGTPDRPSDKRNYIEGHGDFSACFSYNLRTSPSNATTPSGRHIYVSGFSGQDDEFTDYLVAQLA

T5: AgeI S138A (UniProt Q9KHV6 1-278, S138A)
T5 sequence: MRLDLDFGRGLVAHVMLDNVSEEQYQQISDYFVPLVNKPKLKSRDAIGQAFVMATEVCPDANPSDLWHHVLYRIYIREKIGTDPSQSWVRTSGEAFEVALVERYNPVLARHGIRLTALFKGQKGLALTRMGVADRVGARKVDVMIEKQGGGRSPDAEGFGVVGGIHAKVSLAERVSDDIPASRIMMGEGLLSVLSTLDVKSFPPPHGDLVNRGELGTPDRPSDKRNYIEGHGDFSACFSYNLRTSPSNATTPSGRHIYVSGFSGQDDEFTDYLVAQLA

T6: AgeI D142A (UniProt Q9KHV6 1-278, D142A)
T6 sequence: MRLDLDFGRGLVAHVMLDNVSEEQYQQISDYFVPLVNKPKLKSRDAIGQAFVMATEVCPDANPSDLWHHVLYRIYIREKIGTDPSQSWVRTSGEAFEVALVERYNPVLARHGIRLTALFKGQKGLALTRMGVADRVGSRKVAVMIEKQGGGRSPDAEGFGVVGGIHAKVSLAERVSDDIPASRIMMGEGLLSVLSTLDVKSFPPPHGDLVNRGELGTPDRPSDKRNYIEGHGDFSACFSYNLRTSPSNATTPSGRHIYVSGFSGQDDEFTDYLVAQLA

T7: AgeI Q86A (UniProt Q9KHV6 1-278, Q86A)
T7 sequence: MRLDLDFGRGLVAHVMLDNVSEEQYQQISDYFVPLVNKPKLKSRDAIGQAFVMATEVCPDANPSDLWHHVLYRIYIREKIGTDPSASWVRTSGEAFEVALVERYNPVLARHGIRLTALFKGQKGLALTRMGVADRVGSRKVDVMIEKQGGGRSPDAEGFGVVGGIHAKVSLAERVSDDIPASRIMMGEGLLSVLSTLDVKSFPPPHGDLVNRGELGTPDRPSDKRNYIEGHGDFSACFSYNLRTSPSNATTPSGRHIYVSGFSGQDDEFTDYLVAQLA


How the values were obtained:
AgeI wt [1] = target: T1, AgeI wt; assay: X-ray crystallography
AgeI D178A = target: T2, AgeI D178A; assay: EMSA
AgeI D223A = target: T3, AgeI D223A; assay: EMSA
AgeI D177A = target: T4, AgeI D177A; assay: EMSA
AgeI S138A = target: T5, AgeI S138A; assay: EMSA
AgeI D142A = target: T6, AgeI D142A; assay: EMSA
AgeI Q86A = target: T7, AgeI Q86A; assay: EMSA
AgeI wt [2] = target: T1, AgeI wt; assay: EMSA
AgeI wt [3] = target: T1, AgeI wt; assay: X-ray crystallography; remark: listed apart in the source

Binder | Kd (AgeI D178A) | Kd (AgeI D223A) | Kd (AgeI D177A) | also measured
SP13 (dsDNA) DNA 1: TTCGACCGGTCGA DNA 2: TTCGACCGGTCGA | – | – | – | binding result (AgeI wt [1]): binds
NC (non-canonical) (dsDNA) DNA 1: AGACCCACGCTCACCGGATCCAGATTTATC DNA 2: GATAAATCTGGATCCGGTGAGCGTGGGTCT | ~5 nM | ~5 nM | 14.7 ± 3.1 nM | –
SP (specific) (dsDNA) DNA 1: AGACCCACGCTCACCGGTTCCAGATTTATC DNA 2: GATAAATCTGGAACCGGTGAGCGTGGGTCT | 1 ± 0.3 nM | 1.2 ± 0.4 nM | 19.5 ± 5.6 nM | Kd (AgeI S138A): 1.2 ± 0.2 nM; Kd (AgeI D142A): 2.4 ± 0.8 nM; Kd (AgeI Q86A): 4.6 ± 1.4 nM; Kd (AgeI wt [2]): 0.9 ± 0.2 nM
SP11 (dsDNA) DNA 1: TCGACCGGTCG DNA 2: TCGACCGGTCG | – | – | – | binding result (AgeI wt [3]): binds
